Molecular target: protein A on the surface of Staphylococcus aureus cells (ATCC 12598) (Staphylococcus aureus, UniProt P38507 37-477)
Test: cell-based or functional assay

B1: sdAb-NAEB: single domain antibody HVHP428 (human VH) conjugated to rhodamine 6G gold nanoaggregate embedded beads with silica shell (other)
VH: QLQLQESGGGLVQPGGSLRLSCAASGFTFSSYAMSWFRQAPGKGLEWVGFIRSKAYGGTTEYAASVKGRFTISRDDSKSIAYLQMNSLRAEDTAMYYCARRAKDGYNSPEDYWGQGTLVTVSS
modifications: covalently coupled by EDC/NHS chemistry to the amine- or carboxylate-modified silica shell of the bead; coupled residues not stated
  agglutination relative to the sdAb pentamer (Ryan et al., 2009; MAC value 3×10^13 pentamer mL^-1): > 100 fold

Reference: patent US20110269148A1 (published 2011)
